B3: human CMV glycoprotein gO (UL74-coded) (other)
chain: KVMSKALYNRPWRGLVLSKIGKYKLDQLKLEILRQLETTISTKYNVSKQPVKNLTMNMTEFPQYYILAGPIQNYSITYLWFDFYSTQLRKPAKYVYSQYNHTAKTITFRPPPCGTVPSMTCLSEMLNVSKRNDTGEQGCGNFTTFNPMFFNVPRWNTKLYVGPTKVNVDSQTIYFLGLTALLLRYAQRNCTHSFYLVNAMSRNLFRVPKYINGTKLKNTMRKLKRKQAPVKEQFEKKAKKTQSTTTPYFSYTTSAALNVTTNVTYSITTAARRVSTSTIAYRPDSSFMKSIMATQLRDLATWVYTTLRYRQNPFCEPSRNRTAVSEFMKNTHVLIRNETPYTIYGTLDMSSLYYNETMFVENKTASDSNKTTPTSPSMGFQRTFIDPLWDYLDSLLFLDEIRNFSLRSPTYVNLTPPEHRRAVNLSTLNSLWWWLQ

How the values were obtained:
[1] = molecular target: B3; assay: co-immunoprecipitation with anti-gO from radiolabeled infected MRC-5 lysates (FIG. 3A)
[2] = molecular target: T1, human CMV glycoprotein gM (UL100-coded) (human CMV, UniProt P16733 1-372); assay: co-immunoprecipitation with anti-gM IMP91-3/1
T1 sequence: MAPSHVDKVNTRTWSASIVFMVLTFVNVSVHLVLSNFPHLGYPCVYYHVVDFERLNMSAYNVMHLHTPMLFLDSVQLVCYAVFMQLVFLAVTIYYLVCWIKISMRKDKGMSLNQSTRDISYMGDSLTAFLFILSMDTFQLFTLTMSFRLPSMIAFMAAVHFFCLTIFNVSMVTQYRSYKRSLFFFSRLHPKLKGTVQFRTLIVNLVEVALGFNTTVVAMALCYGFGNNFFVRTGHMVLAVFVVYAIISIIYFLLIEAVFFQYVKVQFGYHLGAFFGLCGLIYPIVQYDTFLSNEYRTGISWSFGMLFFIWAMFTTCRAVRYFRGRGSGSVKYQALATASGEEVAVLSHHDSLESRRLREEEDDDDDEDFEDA

[3] = molecular target: human CMV glycoprotein gH (UL75-coded) (human CMV, UniProt P12824 24-743); assay: co-immunoprecipitation with anti-gH 14-4b
human CMV pUL130 = molecular target: T2, human CMV pUL130 (human CMV, UniProt P16772 26-214); assay: co-immunoprecipitation with anti-gO from radiolabeled infected MRC-5 lysates (FIG. 3A)
T2 construct: also called UL130 protein; 33- to 35-kDa protein

B1: human CMV pUL128 (other)
chain: EECCEFINVNHPPERCYDFKMCNRFTVALRCPDGEVCYSPEKTAEIRGIVTTMTHSLTRQVVHNKLTSCNYNPLYLEADGRIRCGKVNDKAQYLLGAAGSVPYRWINLEYDKITRIVGLDQYLESVKKHKRLDVCRAKMGYMLQ
notes: also called UL128 protein; 16-kDa protein
B1: no binding [1].

B2: human CMV glycoprotein gN (UL73-coded) (other)
chain: NNSSTSTSATTSKSSASVSTTKLTTVATTSATTTTTTTLSTTSTKLSSTTHDPNVMRRHANDDFYKAHCTSHMYELSLSSFAAWWTMLNALILMGAFCIVLRHCCFQNFTATTTKGY
notes: also called ~60-kDa protein
B2: binds [2].

B3: binds [3]; no binding (human CMV pUL130).
